Values belong to the binder of their own block, whether it stands above or below them. Where no end group is shown, it is not given here. [ ]: non-standard residue; d: D form. The star is where a group is joined. βGlc = OC[C@H]1O[C@@H](*)[C@H](O)[C@@H](O)[C@@H]1O; Nle = CCCC[C@H](N)C(=O)O
What was measured:
VPAC1 = biological target: T1, VPAC1; experiment: cell-based or functional assay
T1 sequence (P32241 whole entry, species assumed, looked up): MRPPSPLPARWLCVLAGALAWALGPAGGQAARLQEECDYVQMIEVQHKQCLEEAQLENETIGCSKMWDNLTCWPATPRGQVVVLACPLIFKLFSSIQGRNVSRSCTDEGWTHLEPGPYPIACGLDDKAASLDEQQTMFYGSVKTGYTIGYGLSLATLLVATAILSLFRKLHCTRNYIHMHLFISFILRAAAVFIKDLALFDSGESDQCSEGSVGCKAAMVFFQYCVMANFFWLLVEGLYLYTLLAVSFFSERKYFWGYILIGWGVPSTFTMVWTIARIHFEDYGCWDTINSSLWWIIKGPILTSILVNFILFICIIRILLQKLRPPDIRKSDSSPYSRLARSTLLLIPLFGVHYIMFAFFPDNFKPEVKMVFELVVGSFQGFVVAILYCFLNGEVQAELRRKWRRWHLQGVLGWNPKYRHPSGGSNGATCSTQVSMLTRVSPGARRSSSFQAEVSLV

VPAC2 = biological target: T2, VPAC2; experiment: cell-based or functional assay
T2 sequence (P41587 whole entry, species assumed, looked up): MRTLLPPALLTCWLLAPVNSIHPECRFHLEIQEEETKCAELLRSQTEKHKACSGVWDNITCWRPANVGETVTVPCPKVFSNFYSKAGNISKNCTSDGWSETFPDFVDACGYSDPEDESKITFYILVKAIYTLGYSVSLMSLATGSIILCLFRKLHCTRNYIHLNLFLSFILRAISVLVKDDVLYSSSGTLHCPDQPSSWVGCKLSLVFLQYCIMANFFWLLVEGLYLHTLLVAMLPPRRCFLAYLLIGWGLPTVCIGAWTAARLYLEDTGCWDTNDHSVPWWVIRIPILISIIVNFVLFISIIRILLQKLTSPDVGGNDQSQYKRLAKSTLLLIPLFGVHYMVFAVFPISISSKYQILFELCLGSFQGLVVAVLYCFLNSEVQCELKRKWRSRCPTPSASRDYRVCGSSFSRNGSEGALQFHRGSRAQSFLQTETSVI

EC50 (agonist) (VPAC1): 4.8 nM | EMax (agonist) (VPAC1): 90% | EC50 (agonist) (VPAC2): 654 nM | EMax (agonist) (VPAC2): 107%
B2: HsDGIFTDSYSRYRKQÑAVKKYLAAV-Ser(Glc) (peptide)
peptide: HSDGIFTDSYSRYRKQXAVKKYLAAVS
modifications: D-Serine at 2 (s); L-Nor-Leucine at 17 (Ñ, written X in letters); Ser 27 = L-Ser(β-D-Glc)

EC50 (agonist) (VPAC1): 1.3 nM | EMax (agonist) (VPAC1): 90% | EC50 (agonist) (VPAC2): 241 nM | EMax (agonist) (VPAC2): 104%
B5: HsDGIFTDSYSRYRKQÑAVKKYLAAVL-Ser(Glc) (peptide)
peptide: HSDGIFTDSYSRYRKQXAVKKYLAAVLS
modifications: D-Serine at 2 (s); L-Nor-Leucine at 17 (Ñ, written X in letters); Ser 28 = L-Ser(β-D-Glc)

EMax (agonist) (VPAC1): 100%
B6: PACAP1-27 (peptide)
peptide: HSDGIFTDSYSRYRKQMAVKKYLAAVL
modifications: ends and bridges not checked

Second part, the binder before the results:

B1: HsDGIFADSYSRYRKQÑAVKKYLAAV-Ser(Glc) (peptide)
peptide: HSDGIFADSYSRYRKQXAVKKYLAAVS
modifications: D-Serine at 2 (s); L-Nor-Leucine at 17 (Ñ, written X in letters); Ser 27 = L-Ser(β-D-Glc)
EC50 (agonist) (VPAC1): 1370 nM | EMax (agonist) (VPAC1): 85%

B3: HsDGIFTDSYSRYRKQÑAVKKYLAAL-Ser(Glc)-L (peptide)
peptide: H[dS]DGIFTDSYSRYRKQ[Nle]AVKKYLAALS(βGlc)L-NH2
modifications: ends and bridges not checked
EC50 (agonist) (VPAC1): 5.9 nM | EMax (agonist) (VPAC1): 93% | EC50 (agonist) (VPAC2): > 2500 nM | EMax (agonist) (VPAC2): -95%

B4: HSDGIFTDSYSRYRKQLAVKKYLAAVL-Ser(Mel) (peptide)
peptide: HSDGIFTDSYSRYRKQLAVKKYLAAVLS(melibiose)-NH2
EC50 (agonist) (VPAC1): 0.55 nM | EMax (agonist) (VPAC1): 102% | EC50 (agonist) (VPAC2): 9.4 nM | EMax (agonist) (VPAC2): 86%

B7: HsDGIFADSYSRYRKQÑAVKKYLAAVL-Ser(Glc) (peptide)
peptide: HSDGIFADSYSRYRKQXAVKKYLAAVLS
modifications: D-Serine at 2 (s); L-Nor-Leucine at 17 (Ñ, written X in letters); Ser 28 = L-Ser(β-D-Glc)
EC50 (agonist) (VPAC1): 78.8 nM | EMax (agonist) (VPAC1): 93% | EC50 (agonist) (VPAC2): > 2500 nM | EMax (agonist) (VPAC2): -42%

B8: HsDGIFADSYSRYRKQÑAVKKYLAAV-Ser(Glc)-L (peptide)
peptide: H[dS]DGIFADSYSRYRKQ[Nle]AVKKYLAAVS(βGlc)L-NH2
modifications: ends and bridges not checked
EC50 (agonist) (VPAC1): 1620 nM | EMax (agonist) (VPAC1): 78%
